According to paper doi:10.1101/2022.04.29.489987 (bioRxiv, 2022):

T1: TRIB2(53–343) (human, UniProt Q92519 53-343)
T1 sequence (looked up): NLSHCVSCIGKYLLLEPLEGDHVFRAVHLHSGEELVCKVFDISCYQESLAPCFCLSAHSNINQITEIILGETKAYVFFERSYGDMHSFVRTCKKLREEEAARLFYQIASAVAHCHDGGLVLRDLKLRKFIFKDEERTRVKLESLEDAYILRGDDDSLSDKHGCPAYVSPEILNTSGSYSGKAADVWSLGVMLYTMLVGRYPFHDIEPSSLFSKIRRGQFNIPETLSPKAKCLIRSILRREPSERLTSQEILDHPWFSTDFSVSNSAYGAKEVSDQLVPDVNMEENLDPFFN

T2: TRIB2(2–343) (human, UniProt Q92519 2-343)
T2 sequence (looked up): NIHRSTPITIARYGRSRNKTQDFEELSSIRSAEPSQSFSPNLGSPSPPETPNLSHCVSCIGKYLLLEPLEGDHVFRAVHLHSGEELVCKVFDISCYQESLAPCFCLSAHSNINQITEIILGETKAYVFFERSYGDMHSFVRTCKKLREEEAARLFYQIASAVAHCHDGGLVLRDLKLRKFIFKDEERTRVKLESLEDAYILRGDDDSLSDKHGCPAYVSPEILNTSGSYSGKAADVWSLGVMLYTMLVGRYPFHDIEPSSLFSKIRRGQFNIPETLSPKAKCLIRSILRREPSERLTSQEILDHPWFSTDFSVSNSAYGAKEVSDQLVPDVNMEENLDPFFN


How the values were obtained:
[1] = biological target: TRIB2-Nb4.103 complex (human) (UniProt Q92519); assay: ITC
[2] = biological target: T1, TRIB2(53–343); assay: ITC
[3] = biological target: T1, TRIB2(53–343); assay: SEC-SAXS
[4] = biological target: T2, TRIB2(2–343); assay: ELISA
[5] = biological target: T1, TRIB2(53–343); assay: SEC-SAXS; remark: listed apart in the source

Kd [2] [nM] | stoichiometry N [2] | binding result [4] | Molecule | other results
27 | ~0.5 | – | Nb4.103 (VHH) VHH: QVQLQESGGGLVQAGGSLRLSCAASGNISAQAYMGWYRQAPGKERELVAGISYGATTYYADSVKGRFTISRDNAKNTVYLQMNSLKPEDTAVYYCAVISAGGGESIGYHFYWGQGTQVTVSS | stoichiometry N [3]: 2 TRIB2 per nanobody
54 | 1 | – | Nb4.105 (VHH) VHH: QVQLQESGGGLVQAGGSLRLSCAASGNIFDNDPMGWYRQAPGKERELVAAIAYGATTYYADSVKGRFTISRDNAKNTVYLQMNSLKPEDTAVYYCAAYGIDDSPKVYSLRYWGQGTQVTVSS | –

The next lines start with the molecule.

Molecule | Kd [2] [nM] | stoichiometry N [2] | binding result [4] | other results
MBP-C/EBPa (from UniProt P49715 1-358) (domain or fragment) | 9000 | – | – | fold decrease in affinity against TRIB2 alone [1]: 3 fold
biotinylated Nb4.103 (Nb-Avi) (VHH, biotin on the Avi-tag) VHH: QVQLQESGGGLVQAGGSLRLSCAASGNISAQAYMGWYRQAPGKERELVAGISYGATTYYADSVKGRFTISRDNAKNTVYLQMNSLKPEDTAVYYCAVISAGGGESIGYHFYWGQGTQVTVSS | – | – | binds | –
biotinylated Nb4.105 (Nb-Avi) (VHH, biotin on the Avi-tag) VHH: QVQLQESGGGLVQAGGSLRLSCAASGNIFDNDPMGWYRQAPGKERELVAAIAYGATTYYADSVKGRFTISRDNAKNTVYLQMNSLKPEDTAVYYCAAYGIDDSPKVYSLRYWGQGTQVTVSS | – | – | binds | –
biotinylated Nb4.101 (Nb-Avi) (VHH, biotin on the Avi-tag) VHH: QVQLQESGGGLVQAGGSLRLSCAASGNISDYLYMGWYRQAPGKERELVAGISYGANTYYADSVKGRFTISRDNAKNTVYLQMNSLKPEDTAVYYCAVFDASRTPILTYWGQGTQVTVSS | – | – | binds | –
Nb4.101 (VHH) VHH: QVQLQESGGGLVQAGGSLRLSCAASGNISDYLYMGWYRQAPGKERELVAGISYGANTYYADSVKGRFTISRDNAKNTVYLQMNSLKPEDTAVYYCAVFDASRTPILTYWGQGTQVTVSS | 57 | ~0.5 | – | stoichiometry N [5]: 1 TRIB2 per nanobody
